Data: EP4538294A1 (Shandong Simcere Biopharmaceutical Co., Ltd., dated 2025)
Where “and” joins values, the source holds several entries; their conditions need not be identical. Identical values can stand only once.

B1: REGN5459 (bispecific antibody, human IgG4 S228P, kappa)
heavy 1: EVQLVESGGGLVQPGGSLRLSCAASGFTFSNFWMTWVRQAPGKGLEWVANMNQDGSEKYYVDSVKGRFTISRDNAKSSLYLQMNSLRAEDTAVYYCARDREYCISTSCYDDFDYWGQGTLVTVSSASTKGPSVFPLAPCSRSTSESTAALGCLVKDYFPEPVTVSWNSGALTSGVHTFPAVLQSSGLYSLSSVVTVPSSSLGTKTYTCNVDHKPSNTKVDKRVESKYGPPCPPCPAPPVAGPSVFLFPPKPKDTLMISRTPEVTCVVVDVSQEDPEVQFNWYVDGVEVHNAKTKPREEQFNSTYRVVSVLTVLHQDWLNGKEYKCKVSNKGLPSSIEKTISKAKGQPREPQVYTLPPSQEEMTKNQVSLTCLVKGFYPSDIAVEWESNGQPENNYKTTPPVLDSDGSFFLYSRLTVDKSRWQEGNVFSCSVMHEALHNHYTQKSLSLSLGK
heavy 2: EVQLVESGGGLVQPGRSLRLSCAASGFTFDDYSMHWVRQAPGKGLEWVSGISWNSGSIGYADSVKGRFTISRDNAKNSLYLQMNSLRAEDTALYYCAKYGSGYGKFYYYGMDVWGQGTTVTVSSASTKGPSVFPLAPCSRSTSESTAALGCLVKDYFPEPVTVSWNSGALTSGVHTFPAVLQSSGLYSLSSVVTVPSSSLGTKTYTCNVDHKPSNTKVDKRVESKYGPPCPPCPAPPVAGPSVFLFPPKPKDTLMISRTPEVTCVVVDVSQEDPEVQFNWYVDGVEVHNAKTKPREEQFNSTYRVVSVLTVLHQDWLNGKEYKCKVSNKGLPSSIEKTISKAKGQPREPQVYTLPPSQEEMTKNQVSLTCLVKGFYPSDIAVEWESNGQPENNYKTTPPVLDSDGSFFLYSRLTVDKSRWQEGNVFSCSVMHEALHNRFTQKSLSLSLGK
light: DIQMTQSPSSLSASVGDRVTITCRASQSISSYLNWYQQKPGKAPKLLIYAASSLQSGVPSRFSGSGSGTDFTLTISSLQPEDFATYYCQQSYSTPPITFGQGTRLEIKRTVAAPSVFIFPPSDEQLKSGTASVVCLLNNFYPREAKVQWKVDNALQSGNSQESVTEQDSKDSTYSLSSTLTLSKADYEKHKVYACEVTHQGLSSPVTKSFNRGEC
notes: Positive control, BCMA x CD3 bispecific of Regeneron (WO 2020018820 A1), made in Expi293F; Fc with mutations that prevent homodimerization; also called RGEN5459
B2: Tri-59 (trispecific antibody, V domains shown)
VHH: EVQLVESGGGLVQPGGSLRLSCAASESISSIHIMAWYRQAPGKQRELVAGIRNDGSTVYVDSVKGRFTISRDNAKNSLYLQMNSLRAEDTAVYYCNADQGFGSYSEWERRSRWGQGTTVTVSS
VH 1: EVQLVQSGAEVKKPGSSVKVSCKASGYTFTSYGISWVRQAPGQGLEWMGEIYPRSGNTYYNEKFKGRVTLTADKSTSTAYMELSSLRSEDTAVYYCARGRAYGRNYPMDYWGQGTTVTVSS
VL 1: EIVLTQSPATLSLSPGERATLSCRASQSIGTSIHWYQQKPGQSPRLLIKYASESISGIPARFSGSGSGTDFTLTISSLEPEDFAVYYCQQSNSWPYTFGGGTKVEIK
VH 2: EVQLVESGGGVVQPGRSLRLSCAASGFTFTDYYMSWVRQAPGKGLEWVAMSRNKAKGHTIEYSSSVKGRFTISRDNSKNTLYLQMNSLRAEDTAVYYCARDTYESYDGYFDVWGQGTTVTVSS
VL 2: DIVMTQSPDSLAVSLGERATINCKSSQSLFNSRSRKNYLAWYQQKPGQTPKLLIYWASIRESGVPDRFSGSGSGTDFTLTISSLQAEDVAVYYCKQSYYLYTFGQGTKLEIK
B3: Tri-32 (trispecific antibody, V domains shown)
VHH: EVQLVESGGGLVQPGGSLRLSCSASGFTLDYYMIGWFRQAPGKEREGLSSISPADGSTYYADSVKGRFTISRDSSKNTVYLQMNSLRAEDTAVYYCAAGNEATISWGFGPWEYDYWGQGTMVTVSS
VH 1: B2 VH 1
VL 1: B2 VL 1
VH 2: B2 VH 2
VL 2: B2 VL 2
B4: Tri-29 (trispecific antibody, V domains shown)
VHH: B3 VHH
VH 1: B2 VH 1
VL 1: B2 VL 1
VH 2: B2 VH 2
VL 2: B2 VL 2
B5: Tri-55 (trispecific antibody, V domains shown)
VHH: B2 VHH
VH 1: B2 VH 1
VL 1: B2 VL 1
VH 2: B2 VH 2
VL 2: B2 VL 2
B6: Tri-49 (trispecific antibody, V domains shown)
VHH: B2 VHH
VH 1: B2 VH 1
VL 1: B2 VL 1
VH 2: B2 VH 2
VL 2: B2 VL 2
B7: Tri-41 (trispecific antibody, V domains shown)
VHH: B3 VHH
VH 1: B2 VH 1
VL 1: B2 VL 1
VH 2: B2 VH 2
VL 2: B2 VL 2
B8: Tri-35 (trispecific antibody, V domains shown)
VHH: B3 VHH
VH 1: B2 VH 1
VL 1: B2 VL 1
VH 2: B2 VH 2
VL 2: B2 VL 2
B9: antiFITC×CD3-Hab01 (bispecific antibody, human IgG4 S228P, kappa, F234A L235A)
heavy: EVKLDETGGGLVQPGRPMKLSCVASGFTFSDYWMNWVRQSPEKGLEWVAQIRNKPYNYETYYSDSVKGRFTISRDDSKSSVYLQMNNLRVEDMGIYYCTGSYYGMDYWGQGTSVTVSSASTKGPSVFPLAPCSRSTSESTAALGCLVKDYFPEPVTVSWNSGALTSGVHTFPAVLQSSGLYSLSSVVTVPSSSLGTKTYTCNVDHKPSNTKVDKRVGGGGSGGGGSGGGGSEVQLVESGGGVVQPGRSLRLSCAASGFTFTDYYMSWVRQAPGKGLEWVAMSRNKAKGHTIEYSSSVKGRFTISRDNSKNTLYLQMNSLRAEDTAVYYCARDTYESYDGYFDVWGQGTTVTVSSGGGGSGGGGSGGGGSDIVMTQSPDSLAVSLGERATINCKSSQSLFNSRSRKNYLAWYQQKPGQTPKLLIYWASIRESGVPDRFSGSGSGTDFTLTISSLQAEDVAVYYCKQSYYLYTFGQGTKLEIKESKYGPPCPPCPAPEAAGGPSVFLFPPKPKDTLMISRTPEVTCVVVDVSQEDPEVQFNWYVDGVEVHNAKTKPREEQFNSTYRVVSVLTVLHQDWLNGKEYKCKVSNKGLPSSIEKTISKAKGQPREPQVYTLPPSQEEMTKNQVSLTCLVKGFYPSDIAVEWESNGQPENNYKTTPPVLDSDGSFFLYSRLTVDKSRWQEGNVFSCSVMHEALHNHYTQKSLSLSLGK
light: DVVMTQTPLSLPVSLGDQASISCRSSQSLVHSNGNTYLRWYLQKPGQSPKVLIYKVSNRFSGVPDRFSGSGSGTDFTLKISRVEAEDLGVYFCSQSTHVPWTFGGGTKLEIKRTVAAPSVFIFPPSDEQLKSGTASVVCLLNNFYPREAKVQWKVDNALQSGNSQESVTEQDSKDSTYSLSSTLTLSKADYEKHKVYACEVTHQGLSSPVTKSFNRGEC
notes: Negative control for the tumor antigens, prepared internally; carries the CD3-Hab01 arm
B10: JNJ7564 (bispecific antibody, human IgG4 S228P, kappa, lambda, F234A L235A)
heavy 1: not shown
light 1: DIQMTQSPSSLSASVGDRVTITCKASQNVATHVGWYQQKPGKAPKRLIYSASYRYSGVPSRFSGSGSGTEFTLTISNLQPEDFATYYCQQYNRYPYTFGQGTKLEIKRTVAAPSVFIFPPSDEQLKSGTASVVCLLNNFYPREAKVQWKVDNALQSGNSQESVTEQDSKDSTYSLSSTLTLSKADYEKHKVYACEVTHQGLSSPVTKSFNRGEC
heavy 2: EVQLVESGGGLVQPGGSLRLSCAASGFTFNTYAMNWVRQAPGKGLEWVARIRSKYNNYATYYAASVKGRFTISRDDSKNSLYLQMNSLKTEDTAVYYCARHGNFGNSYVSWFAYWGQGTLVTVSSASTKGPSVFPLAPCSRSTSESTAALGCLVKDYFPEPVTVSWNSGALTSGVHTFPAVLQSSGLYSLSSVVTVPSSSLGTKTYTCNVDHKPSNTKVDKRVESKYGPPCPPCPAPEAAGGPSVFLFPPKPKDTLMISRTPEVTCVVVDVSQEDPEVQFNWYVDGVEVHNAKTKPREEQFNSTYRVVSVLTVLHQDWLNGKEYKCKVSNKGLPSSIEKTISKAKGQPREPQVYTLPPSQEEMTKNQVSLTCLVKGFYPSDIAVEWESNGQPENNYKTTPPVLDSDGSFLLYSKLTVDKSRWQEGNVFSCSVMHEALHNHYTQKSLSLSLGK
light 2: QTVVTQEPSLTVSPGGTVTLTCRSSTGAVTTSNYANWVQQKPGQAPRGLIGGTNKRAPGTPARFSGSLLGGKAALTLSGVQPEDEAEYYCALWYSNLWVFGGGTKLTVLGQPKAAPSVTLFPPSSEELQANKATLVCLISDFYPGAVTVAWKADSSPVKAGVETTTPSKQSNNKYAASSYLSLTPEQWKSHRSYSCQVTHEGSTVEKTVAPTECS
notes: Positive control, GPRC5D x CD3 bispecific of Johnson & Johnson (WO 2019220368 A1), made by reduction and reoxidation of the two parental antibodies
B11: REGN5459-anti-BCMA-hIgG1 (antibody, V domains shown)
VH: EVQLVESGGGLVQPGGSLRLSCAASGFTFSNFWMTWVRQAPGKGLEWVANMNQDGSEKYYVDSVKGRFTISRDNAKSSLYLQMNSLRAEDTAVYYCARDREYCISTSCYDDFDYWGQGTLVTVSS
VL: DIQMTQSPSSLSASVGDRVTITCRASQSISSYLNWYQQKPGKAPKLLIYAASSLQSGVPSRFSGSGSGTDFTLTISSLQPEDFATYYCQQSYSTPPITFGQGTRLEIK

biological target: T1, human GPRC5D on CHOK1-human GPRC5D cells (human, UniProt Q9NZD1 1-345); assay: FACS, CHOK1-human GPRC5D cells
T1 construct: whole, on cells
T1 sequence (Q9NZD1 whole entry): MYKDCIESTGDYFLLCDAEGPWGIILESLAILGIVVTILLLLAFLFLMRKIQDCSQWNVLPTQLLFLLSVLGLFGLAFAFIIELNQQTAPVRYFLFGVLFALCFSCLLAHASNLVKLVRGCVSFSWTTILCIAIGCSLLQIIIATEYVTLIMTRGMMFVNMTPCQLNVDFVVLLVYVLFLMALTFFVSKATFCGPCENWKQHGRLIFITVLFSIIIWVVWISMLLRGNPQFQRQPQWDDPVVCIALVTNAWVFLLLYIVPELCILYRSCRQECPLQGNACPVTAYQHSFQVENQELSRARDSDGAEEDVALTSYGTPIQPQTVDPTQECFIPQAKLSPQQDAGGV

Binder	binding result	EC50
B1	no binding (tested: 100 nM highest concentration)	
B2		0.59 nM
B3		3.06 nM
B4		1.39 nM
B5		6.26 nM
B6		2.75 nM
B7		4.3 nM
B8		1.78 nM
B9	no binding (tested: 100 nM highest concentration)	

biological target: T2, human CD3 on Jurkat cells and on activated human PBMC (human, UniProt P07766 23-207; P04234 22-171); assay: FACS, Jurkat cells
T2 construct: whole, on cells; Endogenous CD3 of the T cell receptor complex on cells
T2 sequence (P07766 23-207, chain 1 of 2): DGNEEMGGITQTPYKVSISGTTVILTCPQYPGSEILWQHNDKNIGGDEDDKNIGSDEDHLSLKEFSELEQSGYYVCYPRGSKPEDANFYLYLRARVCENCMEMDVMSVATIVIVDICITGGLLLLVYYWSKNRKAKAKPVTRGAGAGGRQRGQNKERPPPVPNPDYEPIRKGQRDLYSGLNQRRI
T2 sequence (P04234 22-171, chain 2 of 2): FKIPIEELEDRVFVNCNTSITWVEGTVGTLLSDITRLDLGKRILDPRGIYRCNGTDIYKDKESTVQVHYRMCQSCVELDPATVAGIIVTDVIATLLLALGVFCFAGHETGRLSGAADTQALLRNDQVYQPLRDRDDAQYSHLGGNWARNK

Binder	EC50	Maximum mean fluorescence intensity
B1	74.7 nM and 49.7 nM and 66.8 nM and 101 nM	
B2		1800
B3	370 nM	3120
B4		418
B5	179 nM	4690
B6	157 nM	795
B7		85
B8		320

biological target: T2, human CD3 on Jurkat cells and on …; assay: FACS, activated human PBMC

Binder	EC50	Maximum mean fluorescence intensity
B1	223 nM and 221 nM	
B10	5.21 nM and 7.36 nM	
B2	92.1 nM	3510
B3		1780
B4	161 nM	6730
B5	149 nM	2260
B6	31.8 nM	1730
B7		235
B8	81.4 nM	2240

biological target: T3, human BCMA on Flp-inCHO-human BCMA cells (human, UniProt Q02223 1-184); assay: FACS, Flp-inCHO-human BCMA cells
T3 construct: whole, on cells
T3 sequence (looked up): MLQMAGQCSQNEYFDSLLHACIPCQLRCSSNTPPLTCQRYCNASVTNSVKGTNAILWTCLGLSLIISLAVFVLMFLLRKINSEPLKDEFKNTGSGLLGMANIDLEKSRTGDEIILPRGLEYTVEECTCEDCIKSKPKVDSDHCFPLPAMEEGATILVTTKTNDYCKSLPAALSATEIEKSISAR

Binder	binding result
B11	binds

biological target: T4, monkey CD3 on activated monkey PBMC (monkey); assay: FACS, activated monkey PBMC
T4 construct: whole, on cells
T4 sequence (Q95LI5 22-198): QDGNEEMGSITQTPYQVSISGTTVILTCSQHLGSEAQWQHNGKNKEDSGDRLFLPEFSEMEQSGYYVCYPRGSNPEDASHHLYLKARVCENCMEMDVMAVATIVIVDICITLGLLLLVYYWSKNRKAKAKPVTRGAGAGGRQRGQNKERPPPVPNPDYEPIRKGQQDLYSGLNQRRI

Binder	EC50	Maximum mean fluorescence intensity
B1	161 nM	
B10	5.79 nM and 5.72 nM	
B2	249 nM	5280
B3		1680
B4		5630
B5	159 nM	2030
B6	59.4 nM	1380
B7		417
B8		1970
B9	15.2 nM and 12.4 nM	

biological target: T3, human BCMA on Flp-inCHO-human BCMA cells; assay: FACS, Flp-inCHO-human BCMA cells; remark: another data set of the same source

Binder	binding result	EC50
B10	no binding (tested: 100 nM highest concentration)	
B2		1.21 nM
B3		2.03 nM
B4		2.27 nM
B5		0.92 nM
B6		1.34 nM
B7		1.52 nM
B8		2.53 nM
B9	no binding (tested: 100 nM highest concentration)	
